Experiments:
[1] = molecular target: CD81(ECD)-ALP conjugate (human; bovine); assay: HI-1000 capture immunoassay; calibrator C5, 2500 ng/mL; mean of 3
[2] = molecular target: CD81(ECD)-ALP conjugate (human; bovine); assay: HI-1000 capture immunoassay; calibrator C3, 55.20 mU/L; mean of 3
[3] = molecular target: CD81(ECD)-ALP conjugate (human; bovine); assay: HI-1000 capture immunoassay; calibrator C5, 883.16 mU/L; run 1
[4] = molecular target: CD81(ECD)-ALP conjugate (human; bovine); assay: HI-1000 capture immunoassay; calibrator C1, 4 ng/mL; mean of 3
[5] = molecular target: CD81(ECD)-ALP conjugate (human; bovine); assay: HI-1000 capture immunoassay; calibrator C4, 220.80 mU/L; run 2
[6] = molecular target: CD81(ECD)-ALP conjugate (human; bovine); assay: HI-1000 capture immunoassay; calibrator C4, 220.80 mU/L; run 3
[7] = molecular target: CD81(ECD)-ALP conjugate (human; bovine); assay: HI-1000 capture immunoassay; calibrator C5, 2500 ng/mL; run 1
[8] = molecular target: CD81(ECD)-ALP conjugate (human; bovine); assay: HI-1000 capture immunoassay; calibrator C2, 13.80 mU/L; run 2
[9] = molecular target: CD81(ECD)-ALP conjugate (human; bovine); assay: HI-1000 capture immunoassay; calibrator C3, 55.20 mU/L; run 2
[10] = molecular target: CD81(ECD)-ALP conjugate (human; bovine); assay: HI-1000 capture immunoassay; calibrator C4, 500 ng/mL; mean of 3
[11] = molecular target: CD81(ECD)-ALP conjugate (human; bovine); assay: HI-1000 capture immunoassay; calibrator C3, 100 ng/mL; mean of 3
[12] = molecular target: CD81(ECD)-ALP conjugate (human; bovine); assay: HI-1000 capture immunoassay; calibrator C4, 500 ng/mL; run 1
[13] = molecular target: CD81(ECD)-ALP conjugate (human; bovine); assay: HI-1000 capture immunoassay; calibrator C1, 4 ng/mL; run 3
[14] = molecular target: CD81(ECD)-ALP conjugate (human; bovine); assay: HI-1000 capture immunoassay; calibrator C2, 20 ng/mL; run 3
[15] = molecular target: CD81(ECD)-ALP conjugate (human; bovine); assay: HI-1000 capture immunoassay; calibrator C1, 3.45 mU/L; run 1
[16] = molecular target: CD81(ECD)-ALP conjugate (human; bovine); assay: HI-1000 capture immunoassay; calibrator C3, 100 ng/mL; run 1
[17] = molecular target: CD81(ECD)-ALP conjugate (human; bovine); assay: HI-1000 capture immunoassay; calibrator C2, 13.80 mU/L; run 3
[18] = molecular target: CD81(ECD)-ALP conjugate (human; bovine); assay: HI-1000 capture immunoassay; calibrator C2, 20 ng/mL; mean of 3
[19] = molecular target: CD81(ECD)-ALP conjugate (human; bovine); assay: HI-1000 capture immunoassay; calibrator C5, 883.16 mU/L; mean of 3
[20] = molecular target: CD81(ECD)-ALP conjugate (human; bovine); assay: HI-1000 capture immunoassay; calibrator C1, 3.45 mU/L; run 3
[21] = molecular target: CD81(ECD)-ALP conjugate (human; bovine); assay: HI-1000 capture immunoassay; calibrator C5, 883.16 mU/L; run 2
[22] = molecular target: CD81(ECD)-ALP conjugate (human; bovine); assay: HI-1000 capture immunoassay; calibrator C2, 13.80 mU/L; run 1
[23] = molecular target: CD81(ECD)-ALP conjugate (human; bovine); assay: HI-1000 capture immunoassay; calibrator C5, 883.16 mU/L; run 3
[24] = molecular target: CD81(ECD)-ALP conjugate (human; bovine); assay: HI-1000 capture immunoassay; calibrator C3, 100 ng/mL; run 3
[25] = molecular target: CD81(ECD)-ALP conjugate (human; bovine); assay: HI-1000 capture immunoassay; calibrator C2, 13.80 mU/L; mean of 3
[26] = molecular target: CD81(ECD)-ALP conjugate (human; bovine); assay: HI-1000 capture immunoassay; calibrator C1, 3.45 mU/L; mean of 3
[27] = molecular target: CD81(ECD)-ALP conjugate (human; bovine); assay: HI-1000 capture immunoassay; calibrator C4, 220.80 mU/L; mean of 3
[28] = molecular target: CD81(ECD)-ALP conjugate (human; bovine); assay: HI-1000 capture immunoassay; calibrator C3, 55.20 mU/L; run 3
[29] = molecular target: CD81(ECD)-ALP conjugate (human; bovine); assay: HI-1000 capture immunoassay; calibrator C2, 20 ng/mL; run 2
[30] = molecular target: CD81(ECD)-ALP conjugate (human; bovine); assay: HI-1000 capture immunoassay; calibrator C1, 4 ng/mL; run 2
[31] = molecular target: CD81(ECD)-ALP conjugate (human; bovine); assay: HI-1000 capture immunoassay; calibrator C1, 4 ng/mL; run 1
[32] = molecular target: CD81(ECD)-ALP conjugate (human; bovine); assay: HI-1000 capture immunoassay; calibrator C5, 2500 ng/mL; run 2
[33] = molecular target: CD81(ECD)-ALP conjugate (human; bovine); assay: HI-1000 capture immunoassay; calibrator C4, 500 ng/mL; run 2
[34] = molecular target: CD81(ECD)-ALP conjugate (human; bovine); assay: HI-1000 capture immunoassay; calibrator C3, 100 ng/mL; run 2
[35] = molecular target: CD81(ECD)-ALP conjugate (human; bovine); assay: HI-1000 capture immunoassay; calibrator C3, 55.20 mU/L; run 1
[36] = molecular target: CD81(ECD)-ALP conjugate (human; bovine); assay: HI-1000 capture immunoassay; calibrator C2, 20 ng/mL; run 1
[37] = molecular target: CD81(ECD)-ALP conjugate (human; bovine); assay: HI-1000 capture immunoassay; calibrator C4, 220.80 mU/L; run 1
[38] = molecular target: CD81(ECD)-ALP conjugate (human; bovine); assay: HI-1000 capture immunoassay; calibrator C1, 3.45 mU/L; run 2
[39] = molecular target: CD81(ECD)-ALP conjugate (human; bovine); assay: HI-1000 capture immunoassay; calibrator C4, 500 ng/mL; run 3
[40] = molecular target: CD81(ECD)-ALP conjugate (human; bovine); assay: HI-1000 capture immunoassay; calibrator C5, 2500 ng/mL; run 3

Chain of CD81(ECD)-ALP conjugate (human; bovine) (chain, as listed by the source, chain 1 of 2): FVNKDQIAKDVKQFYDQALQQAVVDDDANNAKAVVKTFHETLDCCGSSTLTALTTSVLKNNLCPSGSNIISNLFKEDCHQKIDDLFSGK
Chain of CD81(ECD)-ALP conjugate (human; bovine) (P19111 20-506, chain 2 of 2): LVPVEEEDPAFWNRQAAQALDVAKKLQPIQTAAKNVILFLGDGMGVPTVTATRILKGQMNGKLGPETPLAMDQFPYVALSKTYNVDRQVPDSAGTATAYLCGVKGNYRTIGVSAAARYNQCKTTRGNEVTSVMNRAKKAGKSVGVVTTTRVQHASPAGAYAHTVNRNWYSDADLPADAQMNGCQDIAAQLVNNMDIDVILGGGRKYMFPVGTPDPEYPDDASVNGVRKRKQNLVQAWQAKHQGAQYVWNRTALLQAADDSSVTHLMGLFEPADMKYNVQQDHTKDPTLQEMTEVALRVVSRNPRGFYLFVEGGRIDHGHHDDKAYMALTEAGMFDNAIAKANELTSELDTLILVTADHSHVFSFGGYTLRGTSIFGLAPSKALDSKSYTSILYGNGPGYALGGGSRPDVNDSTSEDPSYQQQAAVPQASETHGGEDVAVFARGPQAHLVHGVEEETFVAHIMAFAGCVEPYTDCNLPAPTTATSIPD

anti-CD81 antibody (Clone: 5A6)
Count value (av) [1]: 494000 count
Count value (av) [2]: 20700 count
Count value [3]: 503000 count
Count value (av) [4]: 1280 count
Count value [5]: 99500 count
Count value [6]: 102000 count
Count value [7]: 498000 count
Count value [8]: 4600 count
Count value [9]: 20400 count
Count value (av) [10]: 100000 count
Count value (av) [11]: 19900 count
Count value [12]: 101000 count
Count value [13]: 1280 count
Count value [14]: 4640 count
Count value [15]: 1380 count
Count value [16]: 20000 count
Count value [17]: 4610 count
Count value (av) [18]: 4500 count
Count value (av) [19]: 498000 count
Count value [20]: 1340 count
Count value [21]: 496000 count
Count value [22]: 4650 count
Count value [23]: 494000 count
Count value [24]: 19600 count
Count value (av) [25]: 4620 count
Count value (av) [26]: 1380 count
Count value (av) [27]: 102000 count
Count value [28]: 20900 count
Count value [29]: 4380 count
Count value [30]: 1300 count
Count value [31]: 1270 count
Count value [32]: 496000 count
Count value [33]: 100000 count
Count value [34]: 20000 count
Count value [35]: 20900 count
Count value [36]: 4480 count
Count value [37]: 105000 count
Count value [38]: 1430 count
Count value [39]: 99600 count
Count value [40]: 486000 count

— patent US20240118272A1
